From IntAct's records for PubMed 19759058

B1: Poly [ADP-ribose] polymerase 1 (Mus musculus), P11103 (parent)
chain: MAEASERLYRVQYAKSGRASCKKCSESIPKDSLRMAIMVQSPMFDGKVPHWYHFSCFWKVGQSIRHPDVEVDGFSELRWDDQQKVKKTAEAGGVAGKGQDGSGGKAEKTLGDFAAEYAKSNRSMCKGCLEKIEKGQMRLSKKMVDPEKPQLGMIDRWYHPTCFVKKRDELGFRPEYSASQLKGFSLLSAEDKEALKKQLPAIKNEGKRKGDEVDGTDEVAKKKSRKETDKYSKLEKALKAQNELIWNIKDELKKACSTNDLKELLIFNQQQVPSGESAILDRVADGMAFGALLPCKECSGQLVFKSDAYYCTGDVTAWTKCMVKTQNPSRKEWVTPKEFREISYLKKLKVKKQDRIFPPESSAPITVHWPLSVTSAPTAVNSSAPADKPLSNMKILTLGKLSQNKDEAKAVIEKLGGKLTGSANKASLCISIKKEVEKMNKKMEEVKEANIRVVSEDFLQDVSASTKSLQDLLSAHSLSPWGAEVKAEPGEVVAPRGKSAAPSKKSKGCFKEEGVNKSEKRMKLTLKGGAAVDPDSGLEHSAHVLEKGGKVFSATLGLVDIVKGTNSYYKLQLLEDDKESRYWIFRSWGRLGTVIGSNKLEQMPSKEEAVEQFMKLYEEKTGNAWHSKNFTKYPKKFYPLEIDYGQDEEAVKKLTVKPGTKSKLPKPVQELVGMIFDVDSMKKALVEYEIDLQKMPLGKLSRRQIQAAYSILSEVQQPVSQGSSESQILDLSNRFYTLIPHDFGMKKPPLLNNADSVQAKVEMLDNLLDIEVAYSLLRGGSDDSSKDPIDVNYEKLKTDIKVVDRDSEEAEVIRKYVKNTHATTHNAYDLEVIDIFKIEREGESQRYKPFRQLHNRRLLWHGSRTTNFAGILSQGLRIAPPEAPVTGYMFGKGIYFADMVSKSANYCHTSQGDPIGLIMLGEVALGNMYELKHASHISKLPKGKHSVKGLGKTTPDPSASITLEGVEVPLGTGIPSGVNDTALLYNEYIVYDIAQVNLKYLLKLKFNFKTSLW
partner: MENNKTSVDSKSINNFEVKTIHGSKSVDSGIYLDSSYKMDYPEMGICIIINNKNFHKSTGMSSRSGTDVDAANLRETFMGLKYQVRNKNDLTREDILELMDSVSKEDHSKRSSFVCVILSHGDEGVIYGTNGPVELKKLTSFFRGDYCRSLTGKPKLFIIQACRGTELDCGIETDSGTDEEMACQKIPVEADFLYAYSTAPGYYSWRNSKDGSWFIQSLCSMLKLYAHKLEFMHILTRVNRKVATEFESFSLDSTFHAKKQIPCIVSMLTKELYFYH

Variants of: B1
Conditions: with casp3_mouse Casp3, P70677

| effect of a mutation on the interaction | Variant |
| --- | --- |
| decreasing interaction | G210K |
